The values that follow come from EP2015073A1.

Test [1] deals with FLAG-tagged, point mutated Bcl10 (R228/G) (human) (UniProt O95999). The experiment in a line: cell-based or functional assay.
For test [2], the target named is human Bcl10 (hBcl10), endogenous in the cells used (human) (UniProt O95999). The experiment in a line: cell-based or functional assay.

Consider “human Malt1 (hMalt1), endogenous in the cells used (from UniProt Q9UDY8 1-824) (enzyme)”, for which the relative NF-κB activity (dual luciferase assay), percent of the maximum levels (wt Bcl10) in test [1] was determined as 75%.
Consider “Malt1 with deletion of the caspase-like domain (Δcasp) or mutation of the active site residues Cys 464 or His 415”, for which the relative NF-κB activity (dual luciferase assay), percent of the maximum level achieved with wt Malt1 in test [2] is 50 to 65%.
